Measurements taken from patent US20070238184A1, “Amyloid beta protein channel structure and uses thereof in identifying potential drug molecules for neurodegenerative diseases” (The Regents of the University of California, priority 2005, published 2007).

Test: Single-channel current recording in planar phospholipid bilayer membranes
Conditions: voltage clamp, peptide added to one side, pH 7.4
Description: Planar phospholipid bilayer membranes were formed as described by Mirzabekov et al. (1999) Meth. Enzymol. 294: 61-74. A bubble of lipid dissolved in heptane was placed at the end of a small (100-300 μm) Teflon tube. Silver/silver chloride electrodes connected the aqueous components bounding the membrane to a voltage clamp. Ion-channel currents through the membrane were recorded by an Axopatch amplifier (Axon Instruments, Sunnyvale, Calif.). Data were filtered at 1 kHz and stored on VHS tape. Membrane capacitance and resistance were monitored continuously to ensure the formation and stability of reproducible membranes and the proper membrane thickness. […] Peptide samples were introduced by perfusing the aqueous solution bounding one side of the membrane.

B1: SAA: human apo-serum amyloid A purchased from PeproTech (protein, UniProt P0DJI8 19-122, looked up)
Serum amyloid A-1 protein: RSFFSFLGEAFDGARDMWRAYSDMREANYIGSDKYFHARGNYDAAKRGPGGAWAAEVITDARENIQRFFGHGAEDSLADQAANEWGRSGKDPNHFRPAGLPEKY
  induction of single-channel ion currents / conductances: Current jumps corresponding to the opening or closing of individual ion channels can be observed
